B1: recombinant soluble D2FcγRIIaFc (D2) protein (Fc fusion)
chain: QAAAPPKAVLKLEPPWINVLQEDSVTLTCQGARSPESDSIQWFHNGNLIPTHTQPSYRFKANNNDSGEYTCQTGQTSLSDPVHLTVLSEWLVLQTPHLEFQEGETIMLRCHSWKDKPLVKVTFFQNGKSQKFSHLDPTFSIPQANHSHSGDYHCTGNIGYTLFSSKPVTITVQVPSMGSSSPVAPPKAVLKLEPPWINVLQEDSVTLTCQGARSPESDSIQWFHNGNLIPTHTQPSYRFKANNNDSGEYTCQTGQTSLSDPVHLTVLSEWLVLQTPHLEFQEGETIMLRCHSWKDKPLVKVTFFQNGKSQKFSHLDPTFSIPQANHSHSGDYHCTGNIGYTLFSSKPVTITVQVPSMGSSSPPRGPTIKPCPPCKCPAPNLEGGPSVFIFPPKIKDVLMISLSPIVTCVVVDVSEDDPDVQISWFVNNVEVHTAQTQTHREDYNSTLRVVSALPIQHQDWMSGKAFACAVNNKDLPAPIERTISKPKGSVRAPQVYVLPPPEEEMTKKQVTLTCMVTDFMPEDIYVEWTNNGKTELNYKNTEPVLDSDGSYFMYSKLRVEKKNWVERNSYSCSVVHEGLHNHHTTKSFSRTPGK
B2: recombinant soluble FcγRIIa dimer (rsFcγRIIa dimer), head to tail homodimer construct of FIG. 1 (receptor)
chain: QAAAPPKAVLKLEPPWINVLQEDSVTLTCQGARSPESDSIQWFHNGNLIPTHTQPSYRFKANNNDSGEYTCQTGQTSLSDPVHLTVLSEWLVLQTPHLEFQEGETIMLRCHSWKDKPLVKVTFFQNGKSQKFSHLDPTFSIPQANHSHSGDYHCTGNIGYTLFSSKPVTITVQVPSMGSSSPVAPPKAVLKLEPPWINVLQEDSVTLTCQGARSPESDSIQWFHNGNLIPTHTQPSYRFKANNNDSGEYTCQTGQTSLSDPVHLTVLSEWLVLQTPHLEFQEGETIMLRCHSWKDKPLVKVTFFQNGKSQKFSHLDPTFSIPQANHSHSGDYHCTGNIGYTLFSSKPVTITVQVPSMGSSSPHHHHHH

What was measured:
[1] = target: heat-aggregated IgG (HAGG); assay: cell-based or functional assay
[2] = target: ovalbumin-anti-ovalbumin immune complexes (OVA ICs); assay: cell-based or functional assay

Binder	fold potency against BIF and M2, HAGG-induced platelet activation (CD41 and CD62P positive) [1] [fold]	fold potency against BIF and M2, loss of CD62L on human neutrophils induced by OVA ICs [2] [fold]	fold potency against Fc-tagged monomer (M2), MC/9 TNF-α release [2] [fold]	fold potency against the non-Fc tagged dimer, MC/9 TNF-α release [2] [fold]	IC50, TNF-α release from MC/9 cells induced by OVA ICs [2] [µg/mL]	fold potency against rsFcγRIIa monomer, MC/9 TNF-α release [2] [fold]
B1	~3	~6	12	3		
B2					2.1	8

From patent US20130089893A1 (TRILLIUM THERAPEUTICS, published 2013)
